T1: LrhCas9-NLS (Lactobacillus rhamnosus)
T1 chain: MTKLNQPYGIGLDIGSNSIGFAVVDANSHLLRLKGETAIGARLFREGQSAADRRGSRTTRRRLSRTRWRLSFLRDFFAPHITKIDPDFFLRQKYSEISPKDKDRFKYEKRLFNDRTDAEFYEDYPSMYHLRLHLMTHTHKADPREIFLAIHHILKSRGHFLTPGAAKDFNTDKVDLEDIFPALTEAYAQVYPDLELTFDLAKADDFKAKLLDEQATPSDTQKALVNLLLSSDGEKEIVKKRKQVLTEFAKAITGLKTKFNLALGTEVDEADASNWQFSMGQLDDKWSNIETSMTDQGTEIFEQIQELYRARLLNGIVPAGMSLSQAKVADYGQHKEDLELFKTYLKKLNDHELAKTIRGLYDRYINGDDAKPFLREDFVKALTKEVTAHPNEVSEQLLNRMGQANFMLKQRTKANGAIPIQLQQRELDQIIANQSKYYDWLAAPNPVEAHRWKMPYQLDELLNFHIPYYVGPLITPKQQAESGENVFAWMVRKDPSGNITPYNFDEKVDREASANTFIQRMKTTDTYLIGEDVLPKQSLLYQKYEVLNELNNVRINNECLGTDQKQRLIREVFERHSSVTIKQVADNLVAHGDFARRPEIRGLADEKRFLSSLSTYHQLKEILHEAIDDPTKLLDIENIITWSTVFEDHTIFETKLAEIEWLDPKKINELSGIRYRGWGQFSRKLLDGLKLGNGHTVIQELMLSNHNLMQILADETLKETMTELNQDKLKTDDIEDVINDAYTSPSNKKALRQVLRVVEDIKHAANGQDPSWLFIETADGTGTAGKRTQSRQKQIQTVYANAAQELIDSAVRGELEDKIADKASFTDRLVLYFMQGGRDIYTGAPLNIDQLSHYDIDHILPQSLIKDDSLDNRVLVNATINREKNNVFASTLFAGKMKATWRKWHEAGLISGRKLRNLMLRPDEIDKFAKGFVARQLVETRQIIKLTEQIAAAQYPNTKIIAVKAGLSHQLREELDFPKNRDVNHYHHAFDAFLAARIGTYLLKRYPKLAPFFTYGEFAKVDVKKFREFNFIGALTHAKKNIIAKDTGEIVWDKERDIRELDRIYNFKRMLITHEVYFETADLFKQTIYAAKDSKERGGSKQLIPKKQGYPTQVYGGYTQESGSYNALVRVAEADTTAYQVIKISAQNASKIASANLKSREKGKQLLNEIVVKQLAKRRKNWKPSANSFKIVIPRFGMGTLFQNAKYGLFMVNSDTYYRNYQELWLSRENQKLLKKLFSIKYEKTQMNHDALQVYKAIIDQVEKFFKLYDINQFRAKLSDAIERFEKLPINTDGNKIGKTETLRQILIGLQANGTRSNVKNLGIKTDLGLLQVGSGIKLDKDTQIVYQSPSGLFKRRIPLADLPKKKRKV

B1: Lrh POR target 1 sgRNA ; POR target 1 (ssRNA ; dsDNA)
RNA: GCUCGUACUGGCGAAUGCUGUCUCAGGUAGAUGUCAGAUCAAUCAGAAAUGAUUGAUCUGACAUCUACGAGUUGAGAUCAAACAAAGCUUCAGCUGAGUUUCAAUUUCUGAGCCCAUGUUGGGCCAUACAUAUGCCACCCGAGUGCAAAUCGGGUGGCUUUUUUU
DNA 1: GCTCGTACTGGCGAATGCTGGAAA
DNA 2: TTTCCAGCATTCGCCAGTACGAGC
B2: Lrh CAR target 2 sgRNA ; CAR target 2 (ssRNA ; dsDNA)
RNA: GUGAGAGUCUCCUCCCCAAUGGUCUCAGGUAGAUGUCAGAUCAAUCAGAAAUGAUUGAUCUGACAUCUACGAGUUGAGAUCAAACAAAGCUUCAGCUGAGUUUCAAUUUCUGAGCCCAUGUUGGGCCAUACAUAUGCCACCCGAGUGCAAAUCGGGUGGCUUUUUUU
DNA 1: GTGAGAGTCTCCTCCCCAATGGGAAA
DNA 2: TTTCCCATTGGGGAGGAGACTCTCAC

Biological target: T1, LrhCas9-NLS
Assay: cell_activity; PAM NGAAA; K562
Conditions: tags: C-terminal SV40 NLS

Binder | activity
B1 | 26.7 % indel
B2 | 27 % indel

Reference: US12297449, “Engineered CAS9 systems for eukaryotic genome modification” (Sigma-Aldrich Co. LLC)
